Data as given in US7109015B2, “Removal of N-terminal methionine from proteins by engineered methionine aminopeptidase” (Academia Sinica, priority 2004, dated 2006).
Like-named read-outs stand apart in the source and are kept apart here.

How the values were obtained:
[1] = system: Met-tagged onconase; experiment: In vivo catalytic activity of MetAPs co-expressed with Met-tagged onconase in E. coli BL21(DE3); N-terminus by Edman degradation; type: cell-based; conditions: in vivo in E. coli
Source text: Residues Tyr168, Met206 and Gln233 in the putative substrate-binding site of E. coli MetAP were mutated by site-directed mutagenesis based on the crystal structure and amino acid sequence alignment of MetAPs (Ben-Bassat et al., 1987; Lowther et al., 1999; Walker et al., 1999). For the expression of secretory ribonucleases, the ribonuclease gene was cloned and expressed as described previously (Huang et al., 1998).
Most of the co-expressed target protein, e.g., onconase or RC-RNase L1, existed in insoluble cell lysate. They were denatured, renatured and purified as described previously (Liao et al., 2003). The purified ribonucleases were stored in 20 mM sodium phosphate, pH 7.0, for pyroglutamate formation at the N-terminus. Alternatively, the ribonuclease secreted into culture medium through pe1B system was concentrated and purified to electrophoretical homogeneity at a yield of 1˜5 mg per 1 liter of culture (Huang et al., 1998).

[2] = system: synthetic oligopeptides; type: biochemical; conditions: 4 mM oligopeptide, pH 7.5, 37° C.
Description: The oligopeptide substrates used in this experiment were synthesized on the 432A Synergy peptide synthesizer (Applied Biosystems, Foster, Calif., USA). The enzymatic activity of purified MetAP was assayed as described by Ben-Bassat et al., 1987. Briefly, the diluted MetAP enzyme in 10 μl was added to 90 μl of the substrate solution containing 4 mM oligopeptide, 0.1 M potassium phosphate buffer, pH 7.5 and 0.2 mM CoCl2, incubated at 37° C. for 10 min and stopped in boiling water for 2 min. After addition of 0.9 ml of color development mixture containing 0.2 mg of L-amino acid oxidase, 0.03 mg of horseradish peroxidase and 0.2 mg of o-dianisidine in 0.1 M Tris-HCl, pH 7.4, the mixtures were incubated for 10 min at 37° C., and the optical density at 440 nm was recorded. One unit of activity is defined as 1 μmol of amino acids produced per min under the assay conditions and the pure Met was used as standard. The N-terminal residues of the MetAP-treated oligopeptide were further verified by Edman degradation.

B1: MetAP-Q233G: E. coli MetAP with Gln233 replaced by Gly (protein, UniProt P0AE18 2-264, looked up, variant Q233G)
Methionine aminopeptidase: AISIKTPEDIEKMRVAGRLAAEVLEMIEPYVKPGVSTGELDRICNDYIVNEQHAVSACLGYHGYPKSVCISINEVVCHGIPDDAKLLKDGDIVNIDVTVIKDGFHGDTSKMFIVGKPTIMGERLCRITQESLYLALRMVKPGINLREIGAAIQKFVEAEGFSVVREYCGHGIGRGFHEEPQVLHYDSRETNVVLKPGMTFTIEPMVNAGKKEIRTMKDGWTVKTKDRSLSAGYEHTIVVTDNGCEILTLRKDDTIPAIISHDE
- Catalytic activity (%): removal of N-terminal Met ([1]; substrate MQD-Onc): 74%

B2: MetAP-M206V: E. coli MetAP with Met206 replaced by Val (protein, UniProt P0AE18 2-264, looked up, variant M206V)
Methionine aminopeptidase: AISIKTPEDIEKMRVAGRLAAEVLEMIEPYVKPGVSTGELDRICNDYIVNEQHAVSACLGYHGYPKSVCISINEVVCHGIPDDAKLLKDGDIVNIDVTVIKDGFHGDTSKMFIVGKPTIMGERLCRITQESLYLALRMVKPGINLREIGAAIQKFVEAEGFSVVREYCGHGIGRGFHEEPQVLHYDSRETNVVLKPGMTFTIEPVVNAGKKEIRTMKDGWTVKTKDRSLSAQYEHTIVVTDNGCEILTLRKDDTIPAIISHDE
- Catalytic activity (%): removal of N-terminal Met ([1]; substrate MQD-Onc): 61%

B3: MetAP-Q233T: E. coli MetAP with Gln233 replaced by Thr (protein, UniProt P0AE18 2-264, looked up, variant Q233T)
Methionine aminopeptidase: AISIKTPEDIEKMRVAGRLAAEVLEMIEPYVKPGVSTGELDRICNDYIVNEQHAVSACLGYHGYPKSVCISINEVVCHGIPDDAKLLKDGDIVNIDVTVIKDGFHGDTSKMFIVGKPTIMGERLCRITQESLYLALRMVKPGINLREIGAAIQKFVEAEGFSVVREYCGHGIGRGFHEEPQVLHYDSRETNVVLKPGMTFTIEPMVNAGKKEIRTMKDGWTVKTKDRSLSATYEHTIVVTDNGCEILTLRKDDTIPAIISHDE
- Catalytic activity (%): removal of N-terminal Met ([1]; substrate MQD-Onc): 88%

B4: MetAP-*GG (protein)
chain: AISIKTPEDIEKMRVAGRLAAEVLEMIEPYVKPGVSTGELDRICNDYIVNEQHAVSACLGYHGYPKSVCISINEVVCHGIPDDAKLLKDGDIVNIDVTVIKDGFHGDTSKMFIVGKPTIMGERLCRITQESLYLALRMVKPGINLREIGAAIQKFVEAEGFSVVREYCGHGIGRGFHEEPQVLHYDSRETNVVLKPGMTFTIEPGVNAGKKEIRTMKDGWTVKTKDRSLSAGYEHTIVVTDNGCEILTLRKDDTIPAIISHDE
- Catalytic activity (%): removal of N-terminal Met ([1]; substrate MID-Onc): 5%
- Catalytic activity (%): removal of N-terminal Met ([1]; substrate MLD-Onc): 18%
- Catalytic activity (%): removal of N-terminal Met ([1]; substrate MQD-Onc): 96%
- Specific activity (unit/mg) ([2]; substrate MADY (SEQ ID NO:7)): 0.51 ± 0.01 unit/mg
- Specific activity (unit/mg) ([2]; substrate MADYLT (SEQ ID NO:8)): 0.29 ± 0.01 unit/mg
- Specific activity (unit/mg) ([2]; substrate MQDYLT (SEQ ID NO:9)): 0.29 ± 0.02 unit/mg
- Specific activity (unit/mg) ([2]; substrate […] (SEQ ID NO:5)): 3.28 ± 0.04 unit/mg
- Specific activity (unit/mg) ([2]; substrate […] (SEQ ID NO:6)): 0.50 ± 0.02 unit/mg

B5: MetAP-M206G: E. coli MetAP with Met206 replaced by Gly (protein, UniProt P0AE18 2-264, looked up, variant M206G)
Methionine aminopeptidase: AISIKTPEDIEKMRVAGRLAAEVLEMIEPYVKPGVSTGELDRICNDYIVNEQHAVSACLGYHGYPKSVCISINEVVCHGIPDDAKLLKDGDIVNIDVTVIKDGFHGDTSKMFIVGKPTIMGERLCRITQESLYLALRMVKPGINLREIGAAIQKFVEAEGFSVVREYCGHGIGRGFHEEPQVLHYDSRETNVVLKPGMTFTIEPGVNAGKKEIRTMKDGWTVKTKDRSLSAQYEHTIVVTDNGCEILTLRKDDTIPAIISHDE
- Catalytic activity (%): removal of N-terminal Met ([1]; substrate MQD-Onc): 85%

B6: MetAP-*TT (protein)
chain: AISIKTPEDIEKMRVAGRLAAEVLEMIEPYVKPGVSTGELDRICNDYIVNEQHAVSACLGYHGYPKSVCISINEVVCHGIPDDAKLLKDGDIVNIDVTVIKDGFHGDTSKMFIVGKPTIMGERLCRITQESLYLALRMVKPGINLREIGAAIQKFVEAEGFSVVREYCGHGIGRGFHEEPQVLHYDSRETNVVLKPGMTFTIEPTVNAGKKEIRTMKDGWTVKTKDRSLSATYEHTIVVTDNGCEILTLRKDDTIPAIISHDE
- Catalytic activity (%): removal of N-terminal Met ([1]; substrate MQD-Onc): 93%
- Specific activity (unit/mg) ([2]; substrate MADY (SEQ ID NO:7)): 0.38 ± 0.03 unit/mg
- Specific activity (unit/mg) ([2]; substrate MADYLT (SEQ ID NO:8)): 0.12 ± 0.01 unit/mg
- Specific activity (unit/mg) ([2]; substrate MQDYLT (SEQ ID NO:9)): 0.13 ± 0.01 unit/mg
- Specific activity (unit/mg) ([2]; substrate […] (SEQ ID NO:5)): 1.00 ± 0.08 unit/mg
- Specific activity (unit/mg) ([2]; substrate […] (SEQ ID NO:6)): 0.25 ± 0.01 unit/mg

B7: MetAP-M206T: E. coli MetAP with Met206 replaced by Thr (protein, UniProt P0AE18 2-264, looked up, variant M206T)
Methionine aminopeptidase: AISIKTPEDIEKMRVAGRLAAEVLEMIEPYVKPGVSTGELDRICNDYIVNEQHAVSACLGYHGYPKSVCISINEVVCHGIPDDAKLLKDGDIVNIDVTVIKDGFHGDTSKMFIVGKPTIMGERLCRITQESLYLALRMVKPGINLREIGAAIQKFVEAEGFSVVREYCGHGIGRGFHEEPQVLHYDSRETNVVLKPGMTFTIEPTVNAGKKEIRTMKDGWTVKTKDRSLSAQYEHTIVVTDNGCEILTLRKDDTIPAIISHDE
- Catalytic activity (%): removal of N-terminal Met ([1]; substrate MQD-Onc): 86%
